What all share (assay): ELISA
The target of one assay is SOD protein aggregates (Homo sapiens (assumed), UniProt P00441).
The target of assay [1] is α-synuclein protein aggregates (Homo sapiens, UniProt P37840).
Assay [2] has as its target Aβ(1–28), synthetic, aggregated in the presence of Ca2+ (Homo sapiens, UniProt P05067).

Sequence of SOD protein aggregates (P00441 whole entry): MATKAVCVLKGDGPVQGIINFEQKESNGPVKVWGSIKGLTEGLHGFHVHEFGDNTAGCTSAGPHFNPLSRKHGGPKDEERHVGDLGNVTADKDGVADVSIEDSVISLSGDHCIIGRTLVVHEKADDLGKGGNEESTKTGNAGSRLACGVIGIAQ
Sequence of Aβ(1–28), synthetic, aggregated in the presence of Ca2+ (P05067 672-699): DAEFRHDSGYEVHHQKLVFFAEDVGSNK

B1: B24, human monoclonal antibody raised against synthetic oligomeric amyloid-β (antibody, V domains shown)
VH: EVQLLESGGGLVQPGGSLRLSCAASGFTFSSYAMTWVRQAPGEGLEWVSTISGSGIRTYYADSVKGRFTISRDNSKNTMYLQMNSLRAEDTAVYYCAKDGLTGDRRWYFDLWGRGTLVTVSS
VL: EIVMTQSPATLSLSPGERATLSCRASQSVSSSYFSWYQQKPGQAPRLLIYGASTRATGIPARFSGSGSGTDFTLTISSLQPEDFAVYYCQQDSNLPLTFGGGTKVEIK
With B1, the results for the binding result (in the assay with SOD protein aggregates; in assay [1]; in assay [2]) were “no binding”, “no binding” and “binds”, respectively.

B2: B28, human monoclonal antibody raised against synthetic oligomeric amyloid-β (antibody, V domains shown)
VH: QVQLVESGGGVVQPGRSVRLSCAATGFTFSSYGMHWVRQAPGKGLEWVAVIWFDGSNEYYADSVRGRFTISRDNSKNTLYLQMNSLRAEDTAVYYCARRGRVGVTRNYYYYNMDVWGQGTTVTVSS
VL: AIQMTQSPSSLSASVGDRVTITCRASQGIRNDLGWFQQKPGKAPKLLIYPASSLQSGVPSRFSGSGSDTDFTLTISSLQPEDFATYYCLQDYNFPFTFGPGTKVDIK
On to B2, for which the binding result (with SOD protein aggregates; in assay [1]) was “no binding” each time.
